These are literature values, as cited in article PMC3164524.

pKd: −log10 of the molar value.

For this data set, the target named is pYAQL peptide. Kind of data set: SPR.

Consider SHP-2 N-SH2 (from UniProt Q06124), for which the pKd was 6.59.
